From paper PMC5826802 come the findings set out here.

Substrate in this series: NC(=O)c1ccc[n+]([C@@H]2O[C@H](COP(=O)([O-])OP(=O)(O)OC[C@H]3O[C@@H](n4cnc5c(N)ncnc54)[C@H](O)[C@@H]3O)[C@@H](O)[C@H]2O)c1
As to the kind of experiment: Enzyme kinetics of PARP15-catalyzed automodification by MLISA. In kind it is biochemical, human. The settings on record: other: 500 nM PARP15, NAD+ 5-400 μM, Michaelis-Menten fit; pH 7.4.

B1: PARP15 (Homo sapiens) (protein)
chain: NLPEHWTDMNHQLFCMVQLEPGQSEYNTIKDKFTRTCSSYAIEKIERIQNAFLWQSYQVKKRQMDIKNDHKNNERLLFHGTDADSVPYVNQHGFNRSCAGKNAVSYGKGTYFAVDASYSAKDTYSKPDSNGRKHMYVVRVLTGVFTKGRAGLVTPPPKNPHNPTDLFDSVTNNTRSPKLFVVFFDNQAYPEYLITFTA
Consider B1, for which the Km came out at 4.5 ± 2.9 µM.

What is called Km is the substrate concentration at which the rate is half of its maximum.
